# In EP4755914A1 (CSPC Megalith Biopharmaceutical Co., Ltd., dated 2025):
# Changes are numbered by the printed parent chain.
# B1: humanized antibody hu17-H3L1 (antibody, human IgG1, kappa, L234A L235A, V domains shown)
# VH: QVTLKESGPTLVKPTQTLTLTCSFSGFSLSTSGMGVAWIRQPPGKALEWLAHIWWDDDKRYNPSLKSRLTITKDTSKNQVVLTMTNMDPVDTATYYCARPQFITTVVAFYWYFDVWGQGTTVTVSS
# VL: DILLTQSPSSLSVSVGDRVTITCRASENIYSNLAWYQQKPGKAPKLLVYAATNLADGVPSRFSGSGSGTQYTLTISSLQPEDFATYYCQHFWGTPWTFGGGTKLEIKR
# B2: humanized antibody hu17-H2L1 (antibody, human IgG1, kappa, L234A L235A, V domains shown)
# VH: B1 VH with Q1E, S64A, M84I, M87V
# VL: B1 VL
# B3: humanized antibody hu17-H4L1 (antibody, human IgG1, kappa, L234A L235A, V domains shown)
# VH: B1 VH with S23T, N62G
# VL: B1 VL
# B4: murine antibody 17-F12-G8-A6 (antibody, V domains shown)
# VH: EVTLKESGPGILQPSQTLSLTCSFSGFSLSTSGMGVAWIRQPSGKGLEWLAHIWWDDDKRYNPALKSRLTISKDTSSNQVFLKIASVDTADTATYYCARPQFITTVVAFYWYFDVWGAGTTVTVSS
# VL: DILLTQSPASLSVSMGETVTITCRASENIYSNLAWYQQKQGKSPQLLVYAATNLADGVPSRFSGSGSGTQYSLKINSLQSEDFGSYYCQHFWGTPWTFGGGTKLEIK
# Target: T1, ROR1 antigen (UniProt Q01973 30-403, limits assumed)
# T1 construct: construct not described
# T1 sequence (Q01973 30-403 limits assumed): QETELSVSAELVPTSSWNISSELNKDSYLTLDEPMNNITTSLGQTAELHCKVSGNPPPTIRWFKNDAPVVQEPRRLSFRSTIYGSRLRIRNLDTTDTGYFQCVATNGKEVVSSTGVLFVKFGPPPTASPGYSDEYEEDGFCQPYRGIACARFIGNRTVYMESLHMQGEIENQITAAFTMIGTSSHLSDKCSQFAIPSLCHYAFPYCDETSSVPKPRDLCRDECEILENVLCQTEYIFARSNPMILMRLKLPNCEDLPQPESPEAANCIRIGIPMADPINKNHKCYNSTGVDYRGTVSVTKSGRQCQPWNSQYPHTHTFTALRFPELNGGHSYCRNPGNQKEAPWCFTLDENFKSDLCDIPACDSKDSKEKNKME
# Assay: BLI (Octet RED96e), antibody on sensor, ROR1 antigen from 100 nM in 2-fold dilutions
Kd [nM],koff [s⁻¹],kon [M⁻¹ s⁻¹],Binder
32.4,0.0279,859000,B1
22.7,0.0185,814000,B2
20,0.0147,738000,B3
14.8,0.0105,708000,B4

# Target: T2, ROR1 protein (ACROBiosystems, Cat# RO1-H5223) (UniProt Q01973 308-395)
# T2 construct: Bought protein
# T2 sequence (Q01973 308-395 limits assumed): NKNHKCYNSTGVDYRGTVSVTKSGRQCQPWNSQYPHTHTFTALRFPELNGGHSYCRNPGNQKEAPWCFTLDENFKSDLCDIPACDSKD
# Assay: ELISA on ROR1 protein, anti-IgG secondary antibody, OD450
row,EC50 [µg/mL],Binder
1,0.0014,B1
2,0.00142,B2
3,0.00116,B3
4,0.00136,B4

# Target: T3, ROR1 on stably transgenic ROR1-expressing cells MDA-MB-231-ROR1 (UniProt Q01973 30-937, limits assumed)
# T3 construct: whole, on cells
# T3 sequence (Q01973 30-937 limits assumed): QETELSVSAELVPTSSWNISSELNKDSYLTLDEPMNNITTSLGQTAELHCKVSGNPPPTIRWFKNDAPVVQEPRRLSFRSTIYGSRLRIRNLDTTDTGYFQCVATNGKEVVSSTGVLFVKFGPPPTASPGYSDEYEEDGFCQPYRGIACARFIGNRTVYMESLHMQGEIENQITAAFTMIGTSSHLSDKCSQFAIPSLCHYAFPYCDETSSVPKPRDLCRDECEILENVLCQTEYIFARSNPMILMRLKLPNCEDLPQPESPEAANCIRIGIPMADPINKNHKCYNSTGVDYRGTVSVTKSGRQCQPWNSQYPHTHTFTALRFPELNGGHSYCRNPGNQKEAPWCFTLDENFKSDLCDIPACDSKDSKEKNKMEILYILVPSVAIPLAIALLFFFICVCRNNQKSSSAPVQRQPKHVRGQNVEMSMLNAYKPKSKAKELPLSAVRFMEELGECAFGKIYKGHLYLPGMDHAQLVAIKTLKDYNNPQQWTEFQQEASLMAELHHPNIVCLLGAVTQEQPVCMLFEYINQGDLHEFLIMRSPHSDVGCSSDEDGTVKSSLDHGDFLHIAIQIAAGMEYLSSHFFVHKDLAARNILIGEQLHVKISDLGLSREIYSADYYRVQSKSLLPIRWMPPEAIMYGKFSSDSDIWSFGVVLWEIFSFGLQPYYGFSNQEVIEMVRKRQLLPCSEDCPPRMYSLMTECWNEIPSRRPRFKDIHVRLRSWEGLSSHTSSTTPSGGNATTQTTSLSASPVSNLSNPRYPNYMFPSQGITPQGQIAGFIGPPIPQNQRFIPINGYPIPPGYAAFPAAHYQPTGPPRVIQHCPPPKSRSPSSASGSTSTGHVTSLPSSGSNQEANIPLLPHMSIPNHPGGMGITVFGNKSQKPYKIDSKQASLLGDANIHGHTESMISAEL
# Assay: flow cytometry on MDA-MB-231-ROR1 cells
row,EC50 [µg/mL],Binder
1,0.107,B1
2,0.114,B2
3,0.101,B3
4,0.0988,B4
